system: Escherichia coli TOP10; test: shrunken log2 fold change of peptide-encoding DNA abundance (4.5 h post-induction vs induction); higher = less antimicrobial activity (less host growth inhibition); conditions: time post-induction: 4.5 h; library: site-saturation at positions 5, 18, 19, 20
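Also: peptides expressed intracellularly from a pBAD plasmid library in pooled LB shake-flask culture, induced with 0.3% L-arabinose, DNA abundance read by NGS, three biological replicates, DESeq2 with apeglm shrinkage.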

Sequence | shrunken log2 fold change
RRIRARPPRLPRPRPRPYTLPRP | -0.213
RRIRWRPPRLPRPRPRPDHTPRP | -0.000848
RRIRIRPPRLPRPRPRPMYSPRP | -0.11
RRIRSRPPRLPRPRPRPHRTPRP | -0.0768
RRIRSRPPRLPRPRPRPKHTPRP | -0.206
RRIRTRPPRLPRPRPRPAEPPRP | 0.392
RRIRERPPRLPRPRPRPCAKPRP | 0.00616
RRIRNRPPRLPRPRPRPWEFPRP | -0.00197
RRIRDRPPRLPRPRPRPIQPPRP | 0.00911
RRIRLRPPRLPRPRPRPYWAPRP | 0.216
RRIRRRPPRLPRPRPRPHVCPRP | 0.0988
RRIRRRPPRLPRPRPRPQRWPRP | -0.0703
RRIRGRPPRLPRPRPRPHLAPRP | 0.601
RRIRLRPPRLPRPRPRPNHWPRP | 0.0994
RRIRERPPRLPRPRPRPSYTPRP | -0.181
RRIRARPPRLPRPRPRPFFNPRP | -0.0671
RRIRIRPPRLPRPRPRPACSPRP | -0.129
RRIRLRPPRLPRPRPRPYTHPRP | -0.925
RRIRARPPRLPRPRPRPEVRPRP | 0.623
RRIRRRPPRLPRPRPRPRKQPRP | -0.0686
RRIRQRPPRLPRPRPRPQYNPRP | -1.1
RRIRLRPPRLPRPRPRPCWQPRP | 0.00378

Sequence | shrunken log2 fold change
RRIRVRPPRLPRPRPRPFHTPRP | -1.18
RRIRGRPPRLPRPRPRPTVVPRP | 0.41
RRIRYRPPRLPRPRPRPKIRPRP | 0.0107
RRIRQRPPRLPRPRPRPKTFPRP | -0.259
RRIRWRPPRLPRPRPRPSREPRP | 0.807
RRIRIRPPRLPRPRPRPLSRPRP | -0.243
RRIRHRPPRLPRPRPRPIPCPRP | -0.0558
RRIRDRPPRLPRPRPRPDAEPRP | 1.23
RRIRLRPPRLPRPRPRPPKYPRP | -0.154
RRIRKRPPRLPRPRPRPCFAPRP | 0.358
RRIRARPPRLPRPRPRPGDAPRP | 0.711
RRIRARPPRLPRPRPRPADMPRP | 0.194
RRIRDRPPRLPRPRPRPMMCPRP | -0.131
RRIRARPPRLPRPRPRPPLDPRP | 1
RRIRYRPPRLPRPRPRPGDVPRP | -0.484
RRIRVRPPRLPRPRPRPTWDPRP | 0.178
RRIRQRPPRLPRPRPRPCMPPRP | -0.27
RRIRMRPPRLPRPRPRPYCEPRP | -0.34
RRIRYRPPRLPRPRPRPRHHPRP | -0.846
RRIRPRPPRLPRPRPRPADIPRP | 0.142
RRIRFRPPRLPRPRPRPVCRPRP | -0.0676
RRIRDRPPRLPRPRPRPLNEPRP | -0.188

Sequence | shrunken log2 fold change
RRIRERPPRLPRPRPRPSMTPRP | 0.0627
RRIRDRPPRLPRPRPRPTYHPRP | -0.0146
RRIRVRPPRLPRPRPRPQRGPRP | 0.198
RRIRRRPPRLPRPRPRPGVHPRP | -0.178
RRIRNRPPRLPRPRPRPHEIPRP | -0.102
RRIRMRPPRLPRPRPRPVCGPRP | 0.898
RRIRPRPPRLPRPRPRPWAWPRP | 0.0719
RRIRSRPPRLPRPRPRPQSRPRP | 0.0912
RRIRGRPPRLPRPRPRPQVMPRP | 0.532
RRIRHRPPRLPRPRPRPHHHPRP | -1
RRIRLRPPRLPRPRPRPMDNPRP | -1.1
RRIRRRPPRLPRPRPRPSWTPRP | 0.46
RRIRSRPPRLPRPRPRPWTCPRP | 0.00516
RRIRARPPRLPRPRPRPIHAPRP | 0.0915
RRIRLRPPRLPRPRPRPIHSPRP | -1.61
RRIRCRPPRLPRPRPRPPCNPRP | -0.355
RRIRTRPPRLPRPRPRPNGHPRP | 0.0943
RRIRDRPPRLPRPRPRPNVTPRP | -0.282
RRIRSRPPRLPRPRPRPPGRPRP | 0.482
RRIRMRPPRLPRPRPRPRSGPRP | 0.815
RRIRPRPPRLPRPRPRPHFKPRP | 1.37
RRIRIRPPRLPRPRPRPKRVPRP | 0.0424

Sequence | shrunken log2 fold change
RRIRSRPPRLPRPRPRPQNEPRP | -0.0107
RRIRMRPPRLPRPRPRPDRTPRP | 0.52
RRIRVRPPRLPRPRPRPKFTPRP | -0.0442
RRIRARPPRLPRPRPRPDSMPRP | 0.02
RRIRRRPPRLPRPRPRPYAEPRP | 0.132
RRIRMRPPRLPRPRPRPCLNPRP | -0.0184
RRIRTRPPRLPRPRPRPTHWPRP | 0.987
RRIRVRPPRLPRPRPRPHVGPRP | 0.0858
RRIRYRPPRLPRPRPRPFCMPRP | -0.604
RRIRWRPPRLPRPRPRPLWFPRP | 0.134
RRIRYRPPRLPRPRPRPTNYPRP | 1.18
RRIRVRPPRLPRPRPRPHVCPRP | -0.0775
RRIRKRPPRLPRPRPRPTPRPRP | 1.05
RRIRYRPPRLPRPRPRPKCTPRP | -0.0162
RRIRARPPRLPRPRPRPMRYPRP | -0.179
RRIRNRPPRLPRPRPRPITTPRP | -0.225
RRIRNRPPRLPRPRPRPHISPRP | -0.0617
RRIRGRPPRLPRPRPRPDTEPRP | -0.0629
RRIRVRPPRLPRPRPRPFYRPRP | -0.576
RRIRVRPPRLPRPRPRPDWAPRP | 0.133
RRIRYRPPRLPRPRPRPTFVPRP | -0.0102
RRIRNRPPRLPRPRPRPNWKPRP | -0.0062

Sequence | shrunken log2 fold change
RRIRLRPPRLPRPRPRPRGRPRP | 0.149
RRIRPRPPRLPRPRPRPLEAPRP | 0.249
RRIRERPPRLPRPRPRPFDSPRP | -1.81
RRIRDRPPRLPRPRPRPQDCPRP | -0.00195
RRIRPRPPRLPRPRPRPEGCPRP | 0.17
RRIRYRPPRLPRPRPRPCREPRP | -0.152
RRIRDRPPRLPRPRPRPLHLPRP | -0.0348
RRIRGRPPRLPRPRPRPMGMPRP | 0.886
RRIRMRPPRLPRPRPRPPCCPRP | 0.928
RRIRMRPPRLPRPRPRPTGCPRP | 0.588
RRIRRRPPRLPRPRPRPFYKPRP | -0.173
RRIRARPPRLPRPRPRPVQKPRP | 0.198
RRIRWRPPRLPRPRPRPHGEPRP | 0.135
RRIRIRPPRLPRPRPRPCTDPRP | -0.143
RRIRSRPPRLPRPRPRPLHYPRP | -0.908
RRIRDRPPRLPRPRPRPTDTPRP | 0.146
RRIRTRPPRLPRPRPRPHVVPRP | -0.0414
RRIRKRPPRLPRPRPRPNLTPRP | -0.112
RRIRDRPPRLPRPRPRPHCHPRP | -0.276
RRIRCRPPRLPRPRPRPWCCPRP | -0.649
RRIRQRPPRLPRPRPRPHWNPRP | -0.703

— the supplement of paper PMC9112550, “Optimization of the antimicrobial peptide Bac7 by deep mutational scanning” (BMC Biology, 2022)
